Test results published in patent publication US6346611.

Target: human transforming growth factor β2 (TGFβ2) (human) (UniProt P61812)
Assay: cell-based or functional assay

human transforming growth factor β2 (TGFβ2) (human), sequence (P61812 303-414 limits assumed): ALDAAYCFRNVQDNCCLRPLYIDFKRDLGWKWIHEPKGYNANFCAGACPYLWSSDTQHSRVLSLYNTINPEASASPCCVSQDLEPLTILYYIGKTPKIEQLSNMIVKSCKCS

latency-associated protein (LAP)
Ki, reversal of TGFβ2-mediated inhibition of 3H-thymidine incorporation in mink lung epithelial cells: 0.5 nM
